Assay results from the supplement of paper PMC9170038.

System: MS2 coat protein
Assay: apparent KD of MS2 coat protein; designed switch direction (-1 OFF switch, 1 ON switch): -1; higher = weaker reporter binding
In short: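 Designed RNA switches were transcribed on Illumina chips by stalled E. coli RNA polymerase and titrated with SNAP-549-labelled MS2 coat protein from 0.7 or 1.5 nM, doubling to 3 µM. Step length ran from 0.8–1.5 h at the lowest concentration to 10–20 min at the highest. The apparent KD is the median over clusters for each design, from curve-fitted normalised cluster fluorescence.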

[1] = Eterna round: R95, input ligand: FMN 200 uM
[2] = Eterna round: R95, input ligand: microRNA oligo, concentration not stated
[3] = Eterna round: R95, input ligand: none
[4] = input ligand: microRNA oligo, concentration not stated

Sequence	apparent KD of MS2 coat protein [1]	apparent KD of MS2 coat protein [2]	apparent KD of MS2 coat protein [3]	apparent KD of MS2 coat protein (input ligand: FMN 200 uM)	apparent KD of MS2 coat protein (input ligand: none)	apparent KD of MS2 coat protein [4]
UUAACGUGGGCGUCCCACAGCAAGCUUUUUGCUCGUUUAACAUGAGGAUCACCCAUGUCGCUGCGGGAUCCCUAUGA [Abeisat] (puzzle: Sensor v3, turn-off variant 2)	13.5 nM	13.1 nM	11.6 nM			
UUAAUGGUUGUGAGGAUAUCGGAUAGAUAGAUAUUCGAGAAGGCACAUGAGGAUCACCCAUGUGUGAUUAGAAA [JR_BMEx4_Sub049] (Eterna round: R97, puzzle: Brourd's mod of Exclusion 4)				260 nM	24.6 nM	
UUAAUUAAUGUGAGGAUAUCUAGAGCCUCGGCUCUAGAGAAGGCACAUGAGGAUCACCCAUGUCUCAAUUAAUU [BmEx4/2-E2] (Eterna round: R97, puzzle: Brourd's mod of Exclusion 4)				33.9 nM	23.6 nM	
UUAAUUCGGAUUCUUGAAAUACAUGAGGAUCACCCAUGUUCACAGGAUAUUGAUUAAGUUAGUAACAAGAAGGGUGUAACAUAA [JR_ExcNG3_Sub035] (Eterna round: R96, puzzle: Exclusion NG 3)				57.8 nM	22.9 nM	17.6 nM
UUAAUUUUAGGAUAUACAUGAGGAUCACCCAUGUGGCGGGCCAUGAUGGAGCGUACCAGUAGAAGGAAGAACAG [Eternabot (L2) Solution 43] (Eterna round: R97, puzzle: Exclusion 3)				69.2 nM	73.2 nM	
UUACGGAUAGAGGAUAUAUUAAGGAAGGUUUCGAUAGAAGGCUAGACAUGAGGAUCACCCAUGUAUAUUGGGAU [JR_Ex6_Sub073] (Eterna round: R97, puzzle: Exclusion 6)				164 nM	97.9 nM	
UUAGCGUAAGUAAGGAUAUGCUGGUCGAAAGACCAGCAGAAGGUACAUGAGGAUCACCCAUGUUGAUUCGUUGC [Mod of JL 13 - Jieux - Brourd's mod of Exclusion 4] (Eterna round: R97, puzzle: Brourd's mod of Exclusion 4)				284 nM	39.7 nM	
UUAGUGUAAGGAUAUCCUAUUACGAAGUAGCAACGGUAGAGGGAGAAGGUACAUGAGGAUCACCCAUGUGUCGC [Eternabot (L2) Solution 38] (Eterna round: R97, puzzle: Exclusion 4)				26.3 nM	24.5 nM	
UUAUAAACAUAGGAUAUCGAAUAAAUUAUUUAACGAGAAGGAUGAACAUGAGGAUCACCCAUGUGGUAUCAUGG [Mat - Exclusion 6 - JL Mod - D30] (puzzle: Exclusion 6)	170 nM	228 nM	398 nM			
UUAUACGCUGAGGAUAUUAUCACUGAGAGGUGAUGAGAAGGCGGUACAUGAGGAUCACCCAUGUCUAUGGGCAG [Ex-6 Malc#22] (puzzle: Exclusion 6)		237 nM				
UUAUAUAGGUAGGAUAUCGAUUUUAAUUAAUAUCGAGAAGGGUCAACAUGAGGAUCACCCAUGUCAGCAUGUAU [LRO-Excl6-04-Rocketman] (Eterna round: R97, puzzle: Exclusion 6)				60 nM	55.1 nM	
UUAUAUAGUGUGAGGAUAUGCUGGUCCUUGGAUCAGCAGAAGGCACAUGAGGAUCACCCAUGUAGUUAAUUUUA [JL bmx4 3.03] (puzzle: Brourd's mod of Exclusion 4)	118 nM	25.2 nM	29 nM			
UUAUCCGCUGAGGAUAUUAUCACUGAGAGGUGAUGAGAAGGCGGUACAUGAGGAUCACCCAUGUCUAUGGGCAG [Ex-6 Malc#23] (puzzle: Exclusion 6)	584 nM	228 nM	864 nM			
UUAUUAUAUGUAGGAUAUGCAUAUUAUUAUUAUGCAGAAGGACAUGAGGAUCACCCAUGUAUAUUAUUAUUAUAUAUUAUAUGU [Title] (Eterna round: R96, puzzle: Exclusion NG 1)						33.8 nM
UUAUUAUAUGUAGGAUAUGCAUAUUAUUAUUGUGCAGAAGGACAUGAGGAUCACCCAUGUAUAUUAUUAUUAUAUAUUAUAUAU [Title] (Eterna round: R96, puzzle: Exclusion NG 1)						26.5 nM
UUAUUAUAUGUAGGAUAUGCAUAUUGUUGUUAUGCAGAAGGACAUGAGGAUCACCCAUGUAUAUUAUUGUUAUAUAUUGUAUAU [Title] (Eterna round: R96, puzzle: Exclusion NG 1)						18.2 nM
UUAUUAUAUGUAGGAUAUGCAUAUUGUUGUUAUGCAGAAGGACAUGAGGAUCACCCAUGUAUAUUAUUGUUGUGUAUUAUAUAU [Title] (Eterna round: R96, puzzle: Exclusion NG 1)				57.1 nM	33 nM	29.1 nM
UUAUUUAGGUAGGAUAUCGAUAUUAAUUAUUAUCGAGAAGGGUCUACAUGAGGAUCACCCAUGUUAGCAUGUUU [LRO-Excl6-09-Rocketman] (Eterna round: R97, puzzle: Exclusion 6)				23.3 nM	29.3 nM	

Sequence	apparent KD of MS2 coat protein [1]	apparent KD of MS2 coat protein [2]	apparent KD of MS2 coat protein [3]	apparent KD of MS2 coat protein (input ligand: FMN 200 uM)	apparent KD of MS2 coat protein (input ligand: none)	apparent KD of MS2 coat protein [4]
UUCAUGUAAGGAUAUCGUGCAAGUUUCAAAAGAGGCUUGUGCGAGAAGGUACAUGAGGAUCACCCAUGUAGGUU [Omei Ex4 B9] (Eterna round: R97, puzzle: Exclusion 4)				86.9 nM	754 nM	
UUCCGGUGAGGAUAUUGCACGGUGGGAGAGAGCGCCACUGUCAAGAAGGUACAUGAGGAUCACCCAUGUGAGUA [Eternabot (L1) Solution 24] (Eterna round: R97, puzzle: Exclusion 4)				21.1 nM	25.1 nM	
UUCCUACAUGAGGAUCACCCAUGUCAGGAUAUCUCCUCACCGCGAAUGGGCAGUGAAUAGAGAAGGGACAGGAA [Aner] (puzzle: Exclusion 1)		13.5 nM				
UUCCUCGUUGUGAGGAUAUCGUCCGUGUUUUGUUACGAGAAGGCACAUGAGGAUCACCCAUGUUAUUUGAUUUU [JR_BMOE4_Sub074] (puzzle: Brourd's mod of Exclusion 4)	83.6 nM	36.8 nM	37.9 nM			
UUCCUCGUUGUGAGGAUAUCGUCCUAUUUUUGUUACGAGAAGGCACAUGAGGAUCACCCAUGUUACUUGAUGUU [JR_BMOE4_Sub071] (Eterna round: R96, puzzle: Brourd's mod of Exclusion 4)				188 nM	26 nM	21.1 nM
UUCCUCGUUGUGAGGAUAUCGUCCUAUUUUUGUUACGAGAAGGCACAUGAGGAUCACCCAUGUUACUUGAUGUU [JR_BMOE4_Sub071] (puzzle: Brourd's mod of Exclusion 4)		21.2 nM				
UUCGUGCAGCUUUGCUGUACGCGUACAUGAGGAUCACCCAUGUAGGAUAUGGUAGGCUUUGCUUACUAGAAGGAUAUGGUGAGC [JL EXNG3 1.33] (Eterna round: R96, puzzle: Exclusion NG 3)				85.6 nM	36.1 nM	37.2 nM
UUCUUGGCAGGAUAUGCUCUCUUAGACAUGAGGAUCACCCAUGUGUUCAUUCUUUCUUUUGCAGAAGGGCCUUAAU [JR_E5_Sub045] (puzzle: Exclusion 5)		52.6 nM				
UUCUUGGCAGGAUAUGCUUUUUUAGACAUGAGGAUCACCCAUGUGUUUAUUUUUUUUUUUGCAGAAGGGCCUUAAU [JR_E5_Sub043] (puzzle: Exclusion 5)		26.9 nM				
UUGAGUCGGAAGGAUAUGCGAGCCGCCGGGUCAGCAGAAGGUCCGACAUGAGGAUCACCCAUGUUGGGCGAGGA [EX6 B.10] (Eterna round: R97, puzzle: Exclusion 6)				351 nM	25.2 nM	
UUGAUGUCAUCAGGAUAUAGUAUUUAAGACAUAUCUUCUUUCAAACAUGAGGAUCACCCAUGUCGCUAGAAGGGAUUAUUGAUU [JR_ExcNG2_Sub083] (Eterna round: R96, puzzle: Exclusion NG 2)						11.4 nM
UUGAUUGGUGUAGGAUAUGUAUGAGGAUCACCCAUUAAUAAAUUUUAACCACGAGGAUCACCCGUGUAGAAGGACAUUGGUCAA [pwkr exNG2 2xF5 1xFMN.19] (Eterna round: R96, puzzle: Exclusion NG 2)				33.1 nM	38.4 nM	23.5 nM
UUGAUUGGUGUAGGAUAUGUAUGAGGAUCACCCAUUAAUAAAUUUUAACCACGAGGAUCACCCGUGUAGAAGGACAUUGGUUAU [pwkr exNG2 2xF5 1xFMN.21] (Eterna round: R96, puzzle: Exclusion NG 2)				51.9 nM	59.3 nM	37.8 nM
UUGCCGCAAGGAUAUGCAGACAAGUACAAUACGUGUCUCGGACUUGAGGAUCACCCAAGUAGAAGGCUUUUUAU [LRO-Excl2-14-mod _r4_621 by salish99] (Eterna round: R97, puzzle: Exclusion 2)				23.7 nM	21.4 nM	
UUGGAACGAGGAUAUCGAUGGUGGAACAUGAGGAUCACCCAUGUAUGAGAUAGUGUAGUUCGAGAAGGCGUUAAGU [JR_E5_Sub054] (puzzle: Exclusion 5)	24.1 nM	40.3 nM	48.9 nM			
UUGUAUAUCUAUGGGAGUAACAUGAGGAUCACCCAUGUAUGUCUUGUUUUUUGUUCGUCAUAGGCCAAUUGAAUGGU [JR_SV3TOV1_Sub026] (puzzle: Sensor v3, turn-off variant 1)	25.9 nM	34.5 nM	28.9 nM			
UUGUGAGGUGUAGGAUAUUGUUGUUGUUUUUAGCGAGAAGGACAUGAGGAUCACCCAUGUGUCGUGUUUUUUUUUUUUUUUUUU [simply blue] (Eterna round: R96, puzzle: Exclusion NG 1)				78.9 nM	59.1 nM	93.5 nM
